Experimental data as given in US20220204609A1.

Experiments:
[1] = target: Claudin18.1 on cells (human) (UniProt P56856); assay: flow cytometry on 293T-Claudin18.1 cells, antibody at 3 µg/mL
[2] = target: Claudin18.1 on cells (human) (UniProt P56856); assay: as above; remark: listed apart in the source
[3] = target: Claudin18.1 on cells (human) (UniProt P56856); assay: flow cytometry on 293T-Claudin18.1 cells, antibody at 1.5 µg/mL
[4] = target: Claudin18.1 on cells (human) (UniProt P56856); assay: as above; remark: listed apart in the source
[5] = target: Claudin18.1 on cells (human) (UniProt P56856); assay: flow cytometry on 293T-Claudin18.1 cells, antibody at 0.75 µg/mL
[6] = target: Claudin18.1 on cells (human) (UniProt P56856); assay: as above; remark: listed apart in the source
[7] = target: Claudin18.1 on cells (human) (UniProt P56856); assay: flow cytometry on 293T-Claudin18.1 cells, antibody at 0.375 µg/mL
[8] = target: Claudin18.1 on cells (human) (UniProt P56856); assay: as above; remark: listed apart in the source

Claudin18.1 on cells (human), sequence (P56856 whole entry, form in doubt): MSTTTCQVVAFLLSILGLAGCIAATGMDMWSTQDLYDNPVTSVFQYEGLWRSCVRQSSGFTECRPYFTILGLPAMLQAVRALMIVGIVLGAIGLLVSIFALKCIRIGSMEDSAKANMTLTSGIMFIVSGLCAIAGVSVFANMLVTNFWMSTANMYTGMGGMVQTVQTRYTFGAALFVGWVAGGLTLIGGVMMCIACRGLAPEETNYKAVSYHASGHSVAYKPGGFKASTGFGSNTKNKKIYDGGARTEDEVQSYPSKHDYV

IMAB362 (antibody)
mean fluorescence intensity [1]: 35600 | mean fluorescence intensity [2]: 12500 | mean fluorescence intensity [3]: 24900 | mean fluorescence intensity [4]: 17300 | mean fluorescence intensity [5]: 32000 | mean fluorescence intensity [6]: 20700 | mean fluorescence intensity [7]: 15600 | mean fluorescence intensity [8]: 12800
